A short description of the data set: soluble fraction after stress (log2 fold change); higher = more stays soluble; pooled small domains, quantitative proteomics. As to conditions: stress: 75 degC.
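Also: 20 min heating vs room temperature control held 20 min.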

For “HMITTWAGKATTDVYGRVDANPKADAVLVIKTGWTVQVVGSKTAPDGGTWYKLIYNGKTMYANSKFIVK”, the “soluble fraction (log2)” value was -3.65.

Take “HMITVEAPMPGKVLSVNVKAGDKVEAGDVLLILEAMKMQNEIMAPEDGTVSDVRVSAGDTVATGDVMVV”: the “soluble fraction (log2)” value came out at 0.0808.

As to “HMIVIMAKESSPAELEGVKNRIESHPGLRPQVFDGVERIVVGVLGSIPPDLKDEIELLPGVIEVVPISK”, the “soluble fraction (log2)” value was -0.177.

As to “HMIVVLKHGVTEQQMRNLIAWFKDQGVDVHVSRGIYQTVLGLVGDTSDIDVDLLRMLDIVDAVKRIT”, the “soluble fraction (log2)” value is -2.1.

For the sequence “HMIVVMAADSSREDLDLVQGRIEARGLRAQISQGVERIVIGVLGSLPPDLKDEMELLPGVREVLVIS”, the “soluble fraction (log2)” value is -1.57.

For the sequence “HMIYGNGVTDLKDLANGATIIIPADDSNETRALFLLQQEGLIKLPDDADAAKGVSTLDIVDGGGWVTSM”, the “soluble fraction (log2)” value turned out to be 0.0362.

Consider “HMIYKLIADRLKNRINSDEFEVGDALPSEKALAGELEVSVMTIRKALTLLESEKLIVKRHGSGSYVARKSN”, for which the “soluble fraction (log2)” value is -1.77.

As for “HMIYRTTSVPIDNISTQKFNLQEGWIEMNKNEVEDFIRQKNLELVVTDSNVMLDKFALNGDPNKFKVFKY”, the “soluble fraction (log2)” value amounted to 0.0778.

With “HMKADTSPEAQKKIIAAFEPYSVNKDQIEKLIQRRIDSITPAQVIRLRKILASLKDGMSSPEDWFE”, the “soluble fraction (log2)” value is -0.195.

For the sequence “HMKAERLLALLTILLSGKRVSARWLSEELEVSERTVYRDVEALSEAGFPVYATTGRDGGFSLIDGF”, the “soluble fraction (log2)” value was -2.01.

In the case of “HMKAKPTLLTPYEERLKGWLETDSRRPKRDRRTGLALFAKLQQEGFTGSYTRVTEYIRRWRDSGG”, the “soluble fraction (log2)” value is -2.87.

“HMKALPSAEDVALARESGRVLSTVLQTRAETQQIDFHDDKGAVRSVTLPTTALRLLLDVLTEIGQGNAV”: the “soluble fraction (log2)” value was -0.106.

As to “HMKALRNQDVVVGKPLAMAVYDQHGVLLLGRGHVVISESQRQQLLERGFSIDAEQLGRLRAAIEATQRV”, the “soluble fraction (log2)” value was -1.17.

On to “HMKALYHQLVDLLKKRMESGMIPHDKLPSERELTAQYGVSRTTVRLALQELENTGYIYRRHGKGTFVSDI”, for which the “soluble fraction (log2)” value is -2.85.

Turning to “HMKANIGDQVFTQLKDQIINGEWRPGDRIPSEAQLIQLFGVSRGTVRQAVQKLAGEGLIVTRHGEGSFVQG”, the “soluble fraction (log2)” value is -0.0329.

Regarding “HMKAQLQHIIGSNIKLARNTQGYTQEGLAERAEISVEHLKQVERGKKMLSVESLVNVANALQVSVDSLV”, the “soluble fraction (log2)” value came to 0.0141.

Consider “HMKAQVKSVLDDIPGIGQTRRKALMRYFKSLEKIREASVEELKEADAMNERAAQSVYAFFHK”, for which the “soluble fraction (log2)” value was -0.775.

As to “HMKAQVKSVLDEIPGVGPTRRKALMKHFTSIEEIKQAEFETLLEAEGMNRAAAQSVYDFFHN”, the “soluble fraction (log2)” value is -0.232.

With “HMKDESQLVGAEGKAVTPLRPTGVALIGEKRLDVLTEGEFIPRNSDIIVSRVEGNKIIVKLKN”, the “soluble fraction (log2)” value stood at 0.00394.

Turning to “HMKDHLRFEILSFAGDLRNGVVKTRQEFETIFAFYDKYEEIITALKVHNGYVDSEFDFIKEKFKELKSK”, the “soluble fraction (log2)” value was -2.78.

In the case of “HMKDLQAISERMEEIISFAKANDNEISLFIVQDIIKNKKTGIDEDLLNMALYQIKEQGIKVLPA”, the “soluble fraction (log2)” value is -0.176.

On to “HMKDSIQIPNVVGMTIKDAQSQYGKSFSIIEQNRTESTKPAGTILEQTPAGGDTVSKRDNIIIRVVVSLG”, for which the “soluble fraction (log2)” value was -1.45.

Turning to “HMKDSKSALQEYALERKMGLPVYEVVDRSGPDHAPQFVIAVSLGEWRLEAKGASKRQAEQQAASLMLEEI”, the “soluble fraction (log2)” value was -0.174.

As to “HMKDYTIDDIINSKVEHPLGGYQSRFKVGEYEVSVVGGRQTNHGDFIHTFELAIFDKNNNFLRNLTPVTID”, the “soluble fraction (log2)” value worked out at 0.0559.

“HMKEATTSPLDGIPGIGSKRKKALLSHFGSARSVARADIPDLMRVDGISRQVAETIYGWFHN”: the “soluble fraction (log2)” value is -0.417.

Consider “HMKEDFPLLEQLRYTGEGADVTGTAEKMESIQALRSAADSGGFRATLGDIQQIPGGGLRFTLSLRGSR”, for which the “soluble fraction (log2)” value was -0.0408.

As for “HMKEDNPIVLINLQAKEGEWVFKGTGLPYVGKYHQHKNGEYMIGIGVLNLNHELKPDEIIIPNPNK”, the “soluble fraction (log2)” value was -0.362.

For “HMKEEDYEVFMRLINVRGIGPKSALNILGVISGQEMIQAIENDDIKRLKSLPGIGAKTAGQIVLDLKGKFV”, the “soluble fraction (log2)” value is -0.746.

Consider “HMKEFIPPVLDDVLKFFSGSLLPDWENQGRLFFSHYNSQGWRKGTGVQVTDWDSLANKWILDEKIKRDARS”, for which the “soluble fraction (log2)” value is -0.489.

Consider “HMKEGTIPPVVNRTLSDAEFVLKSYGYELGRVSEQHSDMPKDIVIKQSPEAGTVADPGTRVDVVVSIGKA”, for which the “soluble fraction (log2)” value was 0.485.

Regarding “HMKEHDTLALRLTAILRKLNDGEKLVPRELAEEFNVGIRTIQRDLTERLSFLDLEKTNGAYSLPTRNL”, the “soluble fraction (log2)” value was -0.843.

On to “HMKEIIFRGIGEFILDYKSLVIEFLNKNNYANLSMDAPVDEVNKAVANNMLNEDFVTELLLFQRRVE”, for which the “soluble fraction (log2)” value was -4.14.

For “HMKEILLITGKGLHSGQDDVYKSAQLSKLRYSVPEFIKSNLEISQLILSVETPLQKDGGDGALLIK”, the “soluble fraction (log2)” value was -0.0322.

As for “HMKEILVGVEPLSKKQIIIKKGIKGRSDYIIFEKKNYGLPENLKPEEVSIEIALKIIDEKKKRKA”, the “soluble fraction (log2)” value is -1.48.

As for “HMKEIPTKKGDMLEIYEANGKYILKYPTFNITMPEVVKEIPKEAVDSYLAGKHDGEELINYANFGFWKS”, the “soluble fraction (log2)” value was -0.0757.

Regarding “HMKEKDAYTSEILDTLKNAKLLVVEGTVYPLLTRLKNDGLLNYRWEESTSGPPRKYYGLTDEG”, the “soluble fraction (log2)” value was -0.704.

Take “HMKEKIIKEPYDLFTTDKIGQALEVQALLARQGIKVQRRVDGTKSTLFLENYTQSEKDQALLAVVRSGIV”: the “soluble fraction (log2)” value was -0.719.

On to “HMKEKPLWAIRITELREEHYFTQTDVSKALGIAQTTYAGYETGRHEPDFETMIKIADIYKVSLDYLIGR”, for which the “soluble fraction (log2)” value was -2.03.

On to “HMKELFETLPDVLDAKLLASALSISKAGAYQLLNRPDFPTLQVGGWKLVTKQKLALWMEQHTN”, for which the “soluble fraction (log2)” value was -3.39.

As to “HMKELFGQRLREQRLKQNLTLEQLAEKANLSPNYVGMVERGLKEPGLATIVKLLNGLNVSADTLL”, the “soluble fraction (log2)” value is -0.446.

In the case of “HMKELLTKQQREEILETVKTKTPKDFGYTAEHWTTGFLGKWIEEHYEVEYKSKTSLYLVFKKASFTYHKPG”, the “soluble fraction (log2)” value was 0.24.

As for “HMKELTARQIEILDFITNYEWRHGYWPSIRNIQVQFSYKSTNAVMGHLRALERKGAIERIPGQARTFRIH”, the “soluble fraction (log2)” value is -3.53.

As to “HMKEPFETMPDVMDAKQIAEALQISKAGAYNLLNSPDFPTLRIGGRKLVMKNELVEWLKSHTNRK”, the “soluble fraction (log2)” value stood at 0.428.

On to “HMKEPPTLEEIKNYFASKLSTELESEKFFNYFESNGWLVGGKTPMKNWQSAANNWLINMSKFN”, for which the “soluble fraction (log2)” value is -0.853.

Take “HMKEPQLGPVRKWSDQTGNFGIEAQFVKREGDNILLKRADQRTISIPLEKLSDADQEHLKQEEQKQAME”: the “soluble fraction (log2)” value was -0.333.

On to “HMKEQLEAYVNRLFADAALTIRNAEVRQEILQHALDRYDDLIASGKTEQEAYDETVSGIGDVSGLYEHK”, for which the “soluble fraction (log2)” value is -0.584.

For “HMKETKVIHVHLIFKKTSRFFGSISAIYSEFTAEEIGITEETLRHKGLSDGVSFATKKAIIQQGVLIR”, the “soluble fraction (log2)” value is -2.78.

Consider “HMKEVDSESAFAERGISEVWIPALQKMGILTLEALDAANPNKVFNDLGGMRKKLKIDAAMPTKDEVTAWIQ”, for which the “soluble fraction (log2)” value came to 0.0576.

Consider “HMKEVKPSDFFLSKLDEDHNLIEKFNALSSFKQKEFIEYIDSAKQEKTKHDRFEKIKPILLSNIGLNDKYR”, for which the “soluble fraction (log2)” value was -0.0777.

As to “HMKEVVVPDYFLKQLQKNKKAFITFNNFSPSHKREYVEWITEAKTEETKNRRMKSAIEWMSEGKSRNWKYI”, the “soluble fraction (log2)” value is -0.589.

For “HMKFGETLIDLRKRNGLTQEELAAKLYVTRQAVSRWERGEVTPGIDMLKLIANVLNEPVAHLLDW”, the “soluble fraction (log2)” value is -2.14.

As for “HMKFNRPMSEILQEWENKLGTTSDAELAGLIGVVTMTINRWRKNETKPDLSALNRYDRIVNLVVNNIKQL”, the “soluble fraction (log2)” value was -2.27.

For the sequence “HMKFPPELVEFIEGLSLLKPPLNYATVHRRAEKLAIKKGWASPSYSTVRNIIRKLSPALTTLAHEG”, the “soluble fraction (log2)” value is -2.57.

In the case of “HMKGAADPAIKQKVLDYLDTVEKAKSKEIAKAISEEKSAVDLAVKELAFEDKVEYLYITTTFVALKGKVA”, the “soluble fraction (log2)” value was -1.51.

As for “HMKGALQIAIEEGFNWNLDKKYWNIVQSTVIAKRLGLKTTSGLKEAIEGMGGEYKRTKKARGYLVPTFKD”, the “soluble fraction (log2)” value was -3.98.

For “HMKGDYWIIDLDKNYQYAIISEPDRQYLWILSRSPNMDTQTLETLKEKIRSKGFDLTYLKQTL”, the “soluble fraction (log2)” value was -1.53.

Turning to “HMKGHQASTTWISERVKDIIKEDPTLGARKLQKRLEIHYNIELSYFKVWSGKNLQWMIFMVL”, the “soluble fraction (log2)” value stood at 0.0846.

With “HMKGSYTVKSGDNLWSIARKFYGGSGSTWTKIYSANKSTIESTARRYGRSSSDNGHWIYPGTVLVIP”, the “soluble fraction (log2)” value is -0.924.

As to “HMKGVSFEEIERAVRTAQNPEADETAQQHAGMVFSRMEGNELFDKLVQSSSTIGKKITGLMDYYL”, the “soluble fraction (log2)” value was -0.239.

For the sequence “HMKGYIGESKARNIALKKAPGASITKFEFDKDDGIAVYEVELRKGIYEYELKINAVTGAIIEFEKDIE”, the “soluble fraction (log2)” value is -2.2.

For “HMKHKYWEIKERIKKDILNEVYKKGESIPSERDLAGIYDVTRVTVQKAMAMLVQEGYIERIHGKGMFVLKN”, the “soluble fraction (log2)” value was -2.32.

As for “HMKHRFVVGEVLSIGKLQHEITLKTAQGERKFQLDKQDLPASIQDGAKVRAELNEAGRVIDVHPLK”, the “soluble fraction (log2)” value was -0.0848.

Take “HMKHYMKITDISLQTRDKNRVNVSVDGKYRFSLDVFQVGELGLKVGREYTDEELTALEDESQFG”: the “soluble fraction (log2)” value is -1.11.

Turning to “HMKIATIELVKEAVKSKLGKFTKRDIMELVPSVGKTTIENMLKQLIGEGYIERHGKGRATFYVK”, the “soluble fraction (log2)” value was -0.761.

Turning to “HMKIDANTFTSIEKQLFVLLSKTPTPMGSIFVALAKEDKEAVWEVIHFLEAENRLIMNEDGTIQL”, the “soluble fraction (log2)” value was -2.14.

“HMKIDEVSFAYIERTLFSMLGKLPTPVNKVIATIGEEKKETIWEVIRFLESENKLITNEDGTLQL”: the “soluble fraction (log2)” value is -2.46.

For the sequence “HMKIDNIIIYITGGVKKEGVYELPDGSRISDAIEQAEGLKANADTSSINLAYKLEDGMKIKIPLQGEN”, the “soluble fraction (log2)” value is -0.181.

As for “HMKIDNPEYQKIMDMIPYFFQTRNYDEAIEALSYVIEQEPSFSEAYNKRATFYFMMGDFENSMKDIESTLA”, the “soluble fraction (log2)” value was -0.288.

Take “HMKIEEVIEKLKTDSIISRKEYEDIVRQINPNLSDRTIFWQLAKLQDMGVLQKIGQNSFHVRN”: the “soluble fraction (log2)” value is -0.183.

Take “HMKIERKGDESYLSFVERATSALSDGLIDYQQWGRAVVGEDLYSEENTRRIAKFFAQFIQNLEND”: the “soluble fraction (log2)” value is -2.62.

These data come from the domain aggregation screens of Martell et al. (2025).
